# Assay: Linear charge density of the peptide
# Assay type: physicochemical
substance,measurement,value
"LL-37: highly cationic human cathelicidin, host antimicrobial peptide",linear charge density,~ +1.1 e/nm
